Measured values as given in patent publication US6613536B1, “Synthetic peptides and pharmaceutical compositions comprising them for the treatment of systemic lupus erythematosus” (Yeda Research and Development Co. Ltd., priority 1995, dated 2003).

What was measured:
[1] = molecular target: MHC class II products (H-2s) on splenic antigen-presenting cells of SJL mice (mouse); assay: flow cytometry, inhibition of binding of biotinylated peptide Ia (competitor) to SJL APC
[2] = molecular target: MHC class II products (H-2s) on splenic antigen-presenting cells of SJL mice (mouse); assay: flow cytometry, inhibition of binding of biotinylated peptide IIIa (competitor) to SJL APC
[3] = molecular target: MHC class II products (H-2d) on splenic antigen-presenting cells of BALB/c mice (mouse) (UniProt P04228); assay: flow cytometry, inhibition of binding of biotinylated peptide Ia (competitor) to BALB/c APC
[4] = molecular target: MHC class II products (H-2b) on splenic antigen-presenting cells of C3H.SW mice (mouse) (UniProt P14434); assay: flow cytometry, inhibition of binding of biotinylated peptide Ia (competitor) to C3H.SW APC
[5] = molecular target: MHC class II products (H-2b) on splenic antigen-presenting cells of C57BL/6 mice (mouse) (UniProt P14434); assay: flow cytometry, inhibition of binding of biotinylated peptide Ia (competitor) to C57BL/6 APC
[6] = molecular target: MHC class II products (H-2d) on splenic antigen-presenting cells of BALB/c mice (mouse) (UniProt P04228); assay: flow cytometry, inhibition of binding of biotinylated peptide IIIa (competitor) to BALB/c APC
[7] = molecular target: MHC class II products (H-2b) on splenic antigen-presenting cells of C3H.SW mice (mouse) (UniProt P14434); assay: flow cytometry, inhibition of binding of biotinylated peptide IIIa (competitor) to C3H.SW APC
[8] = molecular target: MHC class II products (H-2b) on splenic antigen-presenting cells of C57BL/6 mice (mouse) (UniProt P14434); assay: flow cytometry, inhibition of binding of biotinylated peptide IIIa (competitor) to C57BL/6 APC
BALB/c and SJL mice = assay: Clinical manifestations of SLE in immunized mice (WBC, proteinuria, kidney analysis); type: in vivo, mouse
Protocol: The erythrocyte sedimentation rate was determined by diluting the heparinized blood in PBS at a ratio of 1:1. The diluted blood was then passed to a microsampling pipette and the sedimentation was measured 6 hours later. White blood cell counts were determined after the hemolysis of heparinized blood. Proteinuria was measured in a semi-quantitative manner, using a Combistix kit (Ames, Stoke Poges, Slough, U.K.). Immunohistology was performed by incubation of fixed frozen cryostat sections with FITC-labeled antibodies to mouse Ig. Staining was visualized via use of a fluorescent microscope.
BALBtc and SJL mice were immunized with mAb 5G12 or with peptides Ia and IIIa, and five months later were checked by two criteria for manifestation of SLE: white blood cell count (WBC) and proteinuria.
(i) White blood cell count (WBC): The mice were bled, their blood was diluted 1:10 with 1% (vol/vol) acetic acid in order to eliminate the red blood cells, and white blood cells were counted under a normal light microscope.
Proteinuria: The urine of the mice was tested using combisticks (Combistix Kit, Ames) for the presence of protein.

[9] = tested on: antibodies in sera of SLE patients and healthy controls; assay: Antibodies in human sera binding coated peptides or mAb 5G12 (ELISA); details: 32 SLE patients in comparison to healthy controls; plates coated 10 μg/ml
Protocol: Human SLE patients (32 patients) were bled and their sera were tested by ELISA for their ability to bind the peptides Ia, IIa and IIIa, a control peptide p195-212 (a myasthogenic peptide described in PCT publication No. WO 94/00148) or mAb 5G12.
Detection of the antibodies was conducted on plates that were coated with 10 μg/ml of peptides Ia, IIa, IIIa or p195-212 or mAb 5G12, in PBS for 2 hr, washed and blocked with 1% ovalbumin in PBS for an additional 2 hr. ELISA was continued as described after blockage in Example 2 above, using goat anti-human IgG polyclonal antibody conjugated to peroxidase.

[10] = tested on: peripheral blood lymphocytes (PBL); assay: Proliferation of PBL from SLE patients and healthy controls; type: cell-based, human
Protocol: (§1) PBL from human SLE patients and of the appropriate control donors (2×10^5/well) were cultured in microtiter plates in enriched medium containing 10% pooled AB sera in the presence of the human or mouse monoclonal 16/6 Id antibody, in the presence of peptides of the invention or in the presence of phytohemagglutinin (PHA). The rate of proliferation was evaluated by the incorporation of ^3[H]-thymidine in the cell culture. Non-relevant peptides were used as specificity controls. Antigen and mitogen-stimulated cytokine production was quantitated in the supernatants of the above cultures using either the cytokine-dependent lines or the appropriate pairs of antibodies in ELISA assays. Inhibition of the proliferative responses was performed in vitro by adding increasing doses of the tested peptide analogs into the proliferative culture mixtures.
Peripheral blood lymphocytes (PBL) were isolated from the blood of SLE patients or healthy controls using ficol gradient. Thereafter, the PBL were incubated in the presence of different concentrations of the peptides Ia, IIa or IIIa, or the human 16/6 Id mAb for 24 hr, when a sample was taken for IL-2 measurement. The assay was continued for a total of 7 days, and ^3H-thymidine was added for the last 16 hr. Proliferation was detected by reading the amount of radioactivity incorporated into the DNA of the cells.

[11] = tested on: peripheral blood lymphocytes (PBL); assay: IL-2 production by PBL of SLE patients and healthy controls; type: cell-based, human; details: sample at 24 hr
Protocol: as §1
PBL were isolated from blood of SLE patients or healthy controls using ficol gradient, and were incubated as in Example 13. A sample of 50 μl was removed 24 hr after the assay was started, and incubated in the presence of IL-2 sensitive cells (CTLD) for 24 hr, after which ^3H-thymidine was added for 16 hr, and the plates were harvested and counted on a beta counter.

| Substance | % inhibition [1] | % inhibition [2] | % inhibition [3] | % inhibition [4] | % inhibition [5] | % inhibition [6] | % inhibition [7] | % inhibition [8] | protein level in urine (in words) (BALB/c and SJL mice; BALB/c mice) | protein level in urine (in words) (BALB/c and SJL mice; SJL mice) | levels of serum antibodies that bind the coated peptide or mAb [9] | proliferation of PBL, actual number of responders ([10]; SLE patients) | proliferation of PBL, percentage of responders ([10]; SLE patients) | proliferation of PBL, actual number of responders ([10]; healthy controls) | proliferation of PBL, percentage of responders ([10]; healthy controls) | IL-2 production by PBL, actual number of responders ([11]; SLE patients) | IL-2 production by PBL, percentage of responders ([11]; SLE patients) | IL-2 production by PBL, actual number of responders ([11]; healthy controls) | IL-2 production by PBL, percentage of responders ([11]; healthy controls) |
| --- | --- | --- | --- | --- | --- | --- | --- | --- | --- | --- | --- | --- | --- | --- | --- | --- | --- | --- | --- |
| 10.3.6.2 (anti-I-A^s (Zamvil et al., 1988)) (antibody) | 100% | 92.8% |  |  |  |  |  |  |  |  |  |  |  |  |  |  |  |  |  |
| 34-5-3 (anti-I-A^b, Pharmingen) (antibody) |  |  | 0% | 60% | 82% | 0% | 84.4% | 59.3% |  |  |  |  |  |  |  |  |  |  |  |
| EINPSTGGTTYNQKFKAKAT (EINPSTGGTTYNQKFKAKAT) [peptide IIa, based on the CDR2 region of the VH chain of mAb 5G12] |  |  |  |  |  |  |  |  | smaller increase in protein level | High levels of protein | significantly higher levels of antibodies | 3/32 | 9% | 7/25 | 28% | 3/32 | 9% | 8/25 | 32% |
| MKD6 (anti-I-A^d, Beckton-Dickinson) (antibody) | 0% | 0% | 76.7% | 0% | 0% | 100% | 25% | 0% |  |  |  |  |  |  |  |  |  |  |  |
